Values of other authors in publication PMC10299984 (Diabetes Therapy, 2023).

Details: 36 healthy participants

For insulin glargine [iGlar], the INS-tmax is listed as 12 h.
